Reference: the nanobody polyreactivity screen of Harvey et al. (2022)

Assay: yeast display, Sf9 membrane polyspecificity reagent, FACS + sequencing; frameworks hold sequencing errors
Method in brief: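 Genes from sorted yeast were amplified by colony PCR, read by MiSeq 2 × 250 sequencing and filtered on CDR length. These cells carried a synthetic nanobody library in Saccharomyces cerevisiae BJ5465 and were sorted by FACS into low and high (top ~1%) gates on anti-HA and streptavidin fluorescence. Polyreactivity is labelled according to the gate of origin.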

QVQLVESVVGLVQEGGSLRLSCAASGRIFAWYAMGWYRQAPGKERELVAAISDSGGSTYYADSVKGRFTISRDNAKNTVYLQMNSLKPEDTAVYYCAAQYVIRITFYATYWDDYWGQGTQVTVSS
polyreactivity (PSR sort gate): low polyreactivity

QVQLVESGGGLVQPVGSLRLSCAASGYTFPRYTMGWSRQAPGKERELVAAITSSGSTNYADSVKGRFTISRDNAKNTVYLQMNSLKPEDTAVYYCNKARIRTWSRGYDYWGQGTQLTVSS
polyreactivity (PSR sort gate): high polyreactivity

QVQLVESGGGLVQAGGSLRLSCAASGFIFTPYAMGWYRQAPGKERELVAAISKSGADTFYADSVKGRFTISRDNAKNTVYLQMNSLKPEDTAVYYCAADDYWGYDYWGQGTQVTVSS
polyreactivity (PSR sort gate): high polyreactivity

QVQLVESGGGLVQAGGSLRLSCAASGRIFYYNAMGWYRQAPGKERELVAGITWRGGSTYYADSVKGRFTISRDNAKNTVYVQMNSLKPEDTAVYYCAKVGWTPYGVSPYDYWGQGTQVTVSS
polyreactivity (PSR sort gate): high polyreactivity

QVQLVESGGGLVQAGGSLRLSCAASGRTFYYYARGWYRQAPGKEREVVASITSGDGTYYADSVQGRFTISRDYAQNTVYLQMNSLKPEATAVYYCAADIFYKFSYYPWYPYRDYYYWGQGTQVTVSS
polyreactivity (PSR sort gate): low polyreactivity

QVQLVESGGGLVQAGGSIRLSCAASGSTLQGNAMGWYRQAPGKERELDAAISRSGGSTYADSVKGRFTISRDNAKNTVYLLMNSLKPEDTAVYYCAAYSGVGYLWFVYWGQGTQVTVSS
polyreactivity (PSR sort gate): low polyreactivity

QVQLVESVGGLVQAGGSLRLSCAASGSTFGINAMGWYRQAPGKERELVASITRRGGSTYYADSVKGRFTISRDNAKNTVYLQMNSLKPEDTAVYYCNKTYRYGTPLYDYWGQGTQVTVSS
polyreactivity (PSR sort gate): high polyreactivity

QVQLVESGGGLVQAGGSLRLSCAASGIIFYDYAMGWYRQAPGKERELVAAITSSGGSTYYADSVKGRFTISRDNAKNTVYLQMNSLKPEDTAVYYCAAATRGSGRRYDYWGQGTQVTVSS
polyreactivity (PSR sort gate): high polyreactivity

QVQLVESGGGLVQAGGSLRLSCDASGFIFYEYAMGWSRQAPGKEREFVAAISRSGTRTYYADSVKGRFTISRDNAKNTVYLQMNSLKPEDTAVYYCAAAYYGYARWRGPRKMDYWGQGTQVTVSS
polyreactivity (PSR sort gate): high polyreactivity

QVQLVESGGGLVQAGGSLRLSCAASGSTFRLNAMGWYRQAPGKERELVAAISWTGGSTYYADSVKGRFTISRDNAKNTVSLQMNSLKPEDSAVYYCATVSYYDRYDYDYWGQGTQVTVSS
polyreactivity (PSR sort gate): low polyreactivity

QVQLQESAGGLVQAGGSLRRSCAASGSIFSNCAMGWYRQTPGKERELVASITAGGNNNYADSVKGRFTISRDNAKNTVYLPMNSLKPEETAVYYCNRRYPGPDSFEHYYYYRYDYWGQGTQVTVSS
polyreactivity (PSR sort gate): low polyreactivity

QVQLVESGGGLVQAGGSLRLSCAASGRIFKSYAMGWYRQAPGKERELVASITWSGGRTYYADSVKGRFTISRDNAKNTVYLQMNSLIPEDTAVYYCAARTYSYGSILKYYYWGQGTQVTVSS
polyreactivity (PSR sort gate): high polyreactivity

QVQLVESGGGLVQAGGRLRLSCAASGFTFYYYTMGWYRQAPGKEREVVAAITWRGGSTNYADSVKGRFTISRDNAKNTVYLQMNSLKPEDTAVYYCAAVTYWFWPGMDYWGQGTQVTVSS
polyreactivity (PSR sort gate): low polyreactivity

QVQLVESGGGLVQAGGSLRLSCAASGFTFAYYTMGWYRQAPGKERELVAAINWSGGSTYYADSVKGRFTISRDYAKNTVYLQMNSLKPEDTAVYYCAAKSYWWATYDYWGQGTQVTVSS
polyreactivity (PSR sort gate): high polyreactivity

QVQLVESVGGLVQAGGSLRLSCAASGRTFSRFAMGWYRKAPGKERELVAAISYSGGRTYYADSVKGRFTISRDNAKNTVYLQMNSLKPEDTAVYYCAASWPGDTVDYDYWGQGTQVTVSS
polyreactivity (PSR sort gate): high polyreactivity

QVQLVESGGGLVQAGGSLRLSCAASGRTFESYVMGWYRQAPGKESELVAAISNGGSTNYADSVKGRFTISRDNAKNTVYLQMNSLKPEDTAVYYCAVRVSGPRGYDYEYWGQGTQVTVSS
polyreactivity (PSR sort gate): low polyreactivity

QVQLVESGGGLVKAGGSLRLSCAASGRTFQIYAMGWYRQAPGKESELVAAISRTGASTYYADSVKGRFTISRDKAKNTLFLQLNSLKPEDTAVYYCAANGHCRVYFGGCHWGQGTQVTVSS
polyreactivity (PSR sort gate): high polyreactivity

QVQLVESGGGLVQAGGSLRLSCAASGIIIRKYAMGWYRQAPGKERELVAAITTRGSRTYYADSVKGRFTISRDNAKNTVYLQMNSLKPEDTAVYYCAGDRYTVRMDYWGQGTQVTVSS
polyreactivity (PSR sort gate): high polyreactivity

QVQLVESGGGLVQAGGSLRLSCAASGITFQGNAMGWYRQAPGKERELVAAISSGGNTHYADSVKGRFTISRDNAKNTVYLQMNSLKPEDTAVYYCAASYYYTYYWGQGTQVTVSS
polyreactivity (PSR sort gate): low polyreactivity

QVHLVESGGGLVQAGGSLRLSCAASGFTFSFYAMGWYRQAPGKERELVAAIDRSGGSTYYADSVKGRFTISRDNAKNTVYLQMNSLKPEDTAFYYCAATVFYGYYYWGQGTQVTVSS
polyreactivity (PSR sort gate): high polyreactivity

QVQLVESGGGLVQAGGSLRLSCAASGSIFVNNALGWYRQAPGKERELVAAISSRSSRTFYADSVKGRFTISRDNAKNTVYLQMNSLKPEDTAVYYCAVKKRAPDGDYWGQGTQVTVSS
polyreactivity (PSR sort gate): high polyreactivity

QVQLVESGGGLVQAGGSLRLSCAASGRTFRWYAMGWYRQAPGKERELVASITWSGGSTYYADSVKGRFTISRDNAKNSVYLQMNSLKPEDTAVYYCNRVLGVSLYEGNYWGQGTQVTVSS
polyreactivity (PSR sort gate): high polyreactivity

QVQLEESGGGLVQAGGSLRLSCAASGSISYNNVMGWYRQAPGKERELVARIRSGGSTYYADSVKGRFTISRDNAKNTVYLLMNSLKQEDTAVYYCAARTKRQAGSYGYWGQGTQVTVSS
polyreactivity (PSR sort gate): high polyreactivity

QVQLVESGAGLVQAGGSLRVSCAASGRTFAHYAMGWYRQAPGKERELVAAISSGASTNYADSVKGRFTISRDNAKNTVYLQMNSLKPEDTAVYYCAKQAKYHQGTYDYWGQGTQVTVSS
polyreactivity (PSR sort gate): low polyreactivity

QVQLVESGGGLVQAGGSLRLSCASSGRTLGGYAMGWYRQAPGKERELVAAITRRGGSTYYADSVKGRFTISRDNAKNTVYLLMNSLKTEDTAVYYCAARWYARSLTRFNYWGEGTQVTVSS
polyreactivity (PSR sort gate): high polyreactivity

QVQLVESGGGLVQAGGSLRLSCAASGSTFTLNTMGWYRQAPGKERELVAGIRSGGSTYYADSVKGRFTISRDNAKNTVYLQMHSLKPEDTAVYYCAADRRWFAYWFDYWGQGTQVTVSS
polyreactivity (PSR sort gate): low polyreactivity

QVQLVESGGGLVQAGGSLRLSCAASGSTFYRYAMGWYRQAPGKERELVAAISRNGGSTYYSDSVKGRFTISRDNAKNTVYLQMNSLKPEDTAVYYCAAVWPYGSRVAPMDYWGQGTQVTVSS
polyreactivity (PSR sort gate): high polyreactivity

QVQLVESGGGVVQAGGSLRLSCAASGRIFVSYAMGWYRQAPGKERELVASISGRGGSTYYADSVKGRFTISRDNAKNTVELQMNSLKPEDTAVYYCNKVARTRRITTYDYWGQGTQVTVSS
polyreactivity (PSR sort gate): high polyreactivity

QVQLVESGGGLVQAGGSLRLSCPASGSIYASNTMGWYRQAPGKERELVSGITKIGSSTYYADSVKRRFTISRDNAKNTVYLQMNSLKPEDTAVYYCNAYGPTIYSSRYDYWGQGTQVTVSS
polyreactivity (PSR sort gate): low polyreactivity

QVQLVESGGGLVQAGGSLRLSCAASGSIFRFYAMGWYIQAPGKERELVAGITWSGASTYYAVSVKGRFTISRDNAKNTVYLQMNSLKPEDTAVYYCAAKSLIVRYDSWGQGTQVTVSS
polyreactivity (PSR sort gate): high polyreactivity

QVQLVESGGGLVQSGGSLRLSCAASGFTFYFNAMGWYRPAPGKERELVAAIRWSGGNTYYADSVKGRFTISRDNAKNTVYLQMNSLKPEDTAVYYCNKDPWHDTYSVKEYDYWGQGTQVTVSS
polyreactivity (PSR sort gate): low polyreactivity

QVQLVESGGGLVQAGGSLRLSSAASAFIFSSYAMGWYRQAPWKERELVAAITRNGGSTYYADSVKGRFTISRDNAKNTVYLQMNSLKPEDTAVYYCAAQRWRGVGRFDYWGQGTQVTVSW
polyreactivity (PSR sort gate): high polyreactivity

QFQLVESVGGLVQAGGSLRLSCAASGYIFRHYAMGWYRQAPGKERELVAAISGRGGSTYYADSVKGRFTISRDNAKNTVYLQMNSLKPEDTAVYYCAKDRKAVGDFYYWGQGTQVTVSS
polyreactivity (PSR sort gate): high polyreactivity

QVQLVESGGGLVQAGGSLRLSCAASGRTFEIYAMGWYRQAPGKERDLVAAITSGGSTYYADSEKGRFTISRDNAKNTVYLQMNSLKPEDTAVYYCAADSSLYGVIRDFDYWGQGTQVTVSS
polyreactivity (PSR sort gate): high polyreactivity

QVQLVESGGGLVQAGGSLRLSCAASGIIFGVYAMGWYRQAPGKERELVAAISWTGGSTFYADSVKGRFTISRDNAKITVYLQMNILKPEDTAVYYCAVDYWSGITWVEYWGQGTQVTVSS
polyreactivity (PSR sort gate): high polyreactivity

QVQLVESGGGLVQAGGSLRLSCAASGSIFYVYTMGWYRQAPGKERELVAAISSSAGSTYYADSVKGRFTISRDNAKNTVYLQMNSLKQEDTAVYYCAAKVRYSLRKYYYWGQGTQVTVSS
polyreactivity (PSR sort gate): high polyreactivity

QVQLVESGVGLVQAGGSLRLSCAASGRIFSFYAMGWYRQAPGKERELVAAITYTDGSTYAVSVKGRFTISRDYAKNTVYLQTNSLKPEDTAVYYCATRYRWTPYDYWGQGTQVTVSS
polyreactivity (PSR sort gate): low polyreactivity

QVQLVESGGGLVQAGGSLRLSCAASGSTFSDNAMGWYRQAPGKERELVATINASGGSTYYADSVKGRFTITRDNAKNTVYLQMNSLKPEDTAVYYCAADVYTRFWRVYRFDYWGQGTQVTVSS
polyreactivity (PSR sort gate): low polyreactivity

QVQLVESGGGLVQAGGSLRLSCAASGRNYWVYAMGWYREAPGKERELVASIDSGSRTTYADSVKGRFTISRDNAKNTVYLQMISLKQEDTAVYYSATSSYTYSPRVWYRWRRDYWGQGTQVNVSS
polyreactivity (PSR sort gate): high polyreactivity

QVQLVESGGGLVQAGGSLRLSCAASGRNFGLNAMGWYRQAPGKERELVAAIDQGDGITYYADSVKGRFTISRDNAKNTVYLQMNSLKTEDTAVYYCAAEVSYKEIYQYYWIYPAYNYWGQGTQVTVSS
polyreactivity (PSR sort gate): high polyreactivity

QVQLVESGGGLVQAGGSLRLSCAASGRTFSQNAMGWYRQAPGKERELVAAIRRGGSTNYADSVKGRFTISRDNEKNTVYLQMHSLKPEDTAVYYCAADLRRNGWGFDYWGQGTQVTVSS
polyreactivity (PSR sort gate): high polyreactivity

QVQLVESGGGLVQAGGSLRLSCAASGFIFGKNAMGWYRQAPGKERELVAVISWRGSSTYYADSVKGRFTISRDNAKNTVYLQMNSLNPEDTAVYYCAARYPARGTLYYWGQGTQVTVSS
polyreactivity (PSR sort gate): low polyreactivity

QVHLVESGGGLVQAGGSLRLSCAASGLIFSFYPMGWYRQAPGKERELVAGINWRGGSTYYADSVKGRFTISRDNAKNTVYLQMNSLKPEETAVYYCAAPSYYYGYWGQGTQVTVLS
polyreactivity (PSR sort gate): high polyreactivity
